Measurements reported in the supplement of paper PMC9170038.

System: MS2 coat protein
Experiment: apparent KD of MS2 coat protein; designed switch direction (-1 OFF switch, 1 ON switch): 1; higher = weaker reporter binding
How it was run: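 Designed RNA switches with common flanks were made on Illumina chips by stalled E. coli RNA polymerase. Titration with SNAP-549-labelled MS2 coat protein doubled from 0.7 or 1.5 nM up to 3 µM. Apparent KD is each design's median over clusters after curve-fitting normalised fluorescence.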

[1] = input ligand: microRNA oligo, concentration not stated
[2] = Eterna round: R95, input ligand: FMN 200 uM
[3] = Eterna round: R95, input ligand: microRNA oligo, concentration not stated
[4] = Eterna round: R95, input ligand: none

Sequence | apparent KD of MS2 coat protein (input ligand: FMN 200 uM) | apparent KD of MS2 coat protein [1] | apparent KD of MS2 coat protein (input ligand: none) | apparent KD of MS2 coat protein [2] | apparent KD of MS2 coat protein [3] | apparent KD of MS2 coat protein [4]
AGCUAGUACCGAGGAUAUACAUACAUGAGGAUCACCCAUGUAUACAUGAAUAUAUGAGACUACAUGUAGAAGGCGGUACUAGCA [Mat - Same State NG 2 - JL mod - D46] (Eterna round: R96, puzzle: Same State NG 2) | 16.2 nM | 42 nM | 60.5 nM | – | – | –
AGCUAGUACCGAGGAUAUACGUACAUGAGGAUCACCCAUGUAUACAUGAUUUAAUGAGACUACAUGUAGAAGGCGGUACUAGCA [JL SSNG2 1.24] (Eterna round: R96, puzzle: Same State NG 2) | 12.4 nM | 39 nM | 53.7 nM | – | – | –
AGCUAGUACCGAGGAUAUACUUACAUGAGGACUACCCAUGUAUACAUGGUUCAAUAGGACUACAUGUAGAAGGCGGUACUAGCA [jandersonlee JLSSNG2 1.24 1FMN F5CU+F7U.1] (Eterna round: R96, puzzle: Same State NG 2) | 595 nM | 26.1 nM | 75.6 nM | – | – | –
AGCUAGUACGAAGGAUAUACAAACAUGAGGAUCACCCAUGUAUACAUGGUUAGAUGUGACUACAUGUAGAAGGUCGUACUAGCA [SameState NG2 #15] (Eterna round: R96, puzzle: Same State NG 2) | 225 nM | 331 nM | 443 nM | – | – | –
AGCUAUUAAUCAGGAUAUAGUGACAUGAGGAUCACCCAUGUAUUGAUGAUGAAAUGUGGUCGCCGCUAGAAGGGAUUACUAACA [SameState NG2 #45] (Eterna round: R96, puzzle: Same State NG 2) | 75.1 nM | 27.7 nM | 34 nM | – | – | –
AGCUAUUAAUCAGGAUAUGGUGACAUGAGGAUCACCCAUGUAUAGAUGAUUAAAUGUGGUCUAUACUAGAAGGGAUUACUAACA [SameState NG2 #53] (Eterna round: R96, puzzle: Same State NG 2) | 2210 nM | 478 nM | 626 nM | – | – | –
AGCUUUUAAUCAGGAUAUGGUCACAUGAGGAUCACCCAUGUAACGAUGAUAUAAUGUGGUCAAGACUAGAAGGGAUUGCUAACA [SameState NG2 #67] (Eterna round: R96, puzzle: Same State NG 2) | 172 nM | 232 nM | 288 nM | – | – | –
AGGAUAACACAUGAGGAUCACCCAUGUAUUAUUAUUACAAGCUUUUUGCUCGUUUUUAAUAAUACAUGUGUUAUUUU [Default title] (puzzle: Sensor for hsa-mir-208a version 2) | – | – | – | 88.2 nM | 88.7 nM | 133 nM
AGGCUCAGACGAGGAUAUGAUCAUGGCGCUUCGGCGCAUACAUGAGGAUCACCCAUGUAGGGUGAUCAGAAGGCGUCUGAGCCA [SSNG2/8-A1] (Eterna round: R96, puzzle: Same State NG 2) | 42.1 nM | 225 nM | 314 nM | – | – | –
AGGUUCGUGCUAGGAUAUCUAGGAUAUGGACGAGGAUUACCCGAGCAGGAUUACCGCACCAGAGGAGAGAAGGAGCAACAAGAG [pwkr ssNG2 2F5 2FMN.13] (Eterna round: R96, puzzle: Same State NG 2) | 0.959 nM | 5.01 nM | 420 nM | – | – | –
AGUAGUGUAACAUGAGGAUCACCCAUGUAAGAAGAUGUAACCUAGGAUAUGGAUGAUAUGUUAGACCAGAAGGAGGAUUGUUUA [JR_SSNG3_Sub039] (Eterna round: R96, puzzle: Same State NG 3) | 43.2 nM | 116 nM | 207 nM | – | – | –
AGUAGUUUAACAUGAGGAUCACCCAUGUAUCUAUCUGUAACCUAGGAUAUGGACGUUUUAUUUAACCAGAAGGAGGAUCGUUUA [JR_SSNG3_Sub045] (Eterna round: R96, puzzle: Same State NG 3) | 17.1 nM | 16.9 nM | 25.3 nM | – | – | –
AGUCCAGCAAGAGCUGGACAAAAGCAUGUACAUGAGGAUCACCCAUGUUCAUGUACAAGCUUUUAGCUCGUCUUAAA [Mat - hsa-mir-208a - Mod of JL - 58] (puzzle: Sensor for hsa-mir-208a) | – | – | – | 505 nM | 14.2 nM | 570 nM
AGUCCAGCAUAAGCUGGACAAAAGCAUGUACAUGAGGAUCACCCAUGUCAUGUACAAGCUUUUUGCUCGUCUUAAUA [Mat - hsa-mir-208a - Mod of JL - D36] (puzzle: Sensor for hsa-mir-208a) | – | – | – | 446 nM | 19.8 nM | 500 nM
AGUCCAGCCAAAGCUGGACAAAAGCAUGUACAUGAGGAUCACCCAUGUUCAUGUACAAGCUUUUUGCAAGUCAAAAG [Mat - hsa-mir-208a - Mod of JL - 77] (puzzle: Sensor for hsa-mir-208a) | – | – | – | 332 nM | 29.5 nM | 498 nM
AGUCCAGCCUGAGCUGGACAAAAGCAUGUACAUGAGGAUCACCCAUGUCAUGUACAAGCUUUUUGCUCGUCUAAAUA [Mat - hsa-mir-208a - Mod of JL - D27] (puzzle: Sensor for hsa-mir-208a) | – | – | – | 516 nM | 15.8 nM | 699 nM
AGUCCAGCCUGAGCUGGACAAAAGCAUGUACAUGAGGAUCACCCAUGUCAUGUACAAGCUUUUUGCUCGUCUUAAAA [JL zipper 46] (Eterna round: R96, puzzle: Sensor for hsa-mir-208a) | 685 nM | 13 nM | 677 nM | – | – | –
AGUCCAGCCUGAGCUGGACAAAAGCAUGUACAUGAGGAUCACCCAUGUCAUGUACAAGCUUUUUGCUCGUUUUAAAA [Zipper 46 - 13] (Eterna round: R96, puzzle: Sensor for hsa-mir-208a) | 633 nM | 12.9 nM | 611 nM | – | – | –
AGUCCAGCCUGAGCUGGACAAAAGCAUGUACAUGAGGAUCACCCAUGUCAUGUACAAGCUUUUUGCUCGUUUUAAAA [Zipper 46 - 13] (puzzle: Sensor for hsa-mir-208a) | – | – | – | 477 nM | 12.9 nM | 1010 nM
AGUCCAGCCUGAGCUGGACAAAAGCAUGUACAUGAGGAUCACCCAUGUUCAUGUACAAGCUUUUUGCAAGUCAAAAU [Mat - hsa-mir-208a - Mod of JL - 80] (puzzle: Sensor for hsa-mir-208a) | – | – | – | 723 nM | 13.8 nM | 641 nM
AGUCCAGCCUGAGCUGGACAAAAGCAUGUACAUGAGGAUCACCCAUGUUCAUGUACAAGCUUUUUGCUCGUCUUAAA [JL zipper 52] (Eterna round: R96, puzzle: Sensor for hsa-mir-208a) | 615 nM | 13.8 nM | 636 nM | – | – | –
AGUCCAGCCUGAGCUGGACAAAAGCAUGUACAUGAGGAUCACCCAUGUUCAUGUACAAGCUUUUUGCUCGUCUUAAA [salish99_208a_r3_026] (puzzle: Sensor for hsa-mir-208a) | – | – | – | 483 nM | 14.6 nM | 533 nM
AGUCCAGCCUGAGCUGGACAAAAGCAUGUACAUGAGGAUCACCCAUGUUCAUGUACAAGCUUUUUGCUCGUCUUACC [salish99_208a_r3_079] (puzzle: Sensor for hsa-mir-208a) | – | – | – | 669 nM | 15.8 nM | 722 nM
AGUCCAGCCUGAGCUGGACAAAAGCAUGUACAUGAGGAUCACCCAUGUUCAUGUACAAGCUUUUUGCUCGUCUUAGC [salish99_208a_r3_063] (puzzle: Sensor for hsa-mir-208a) | – | – | – | 837 nM | 14.6 nM | 648 nM
AGUCCAGCCUGAGCUGGACAAAAGCAUGUACAUGAGGAUCACCCAUGUUCAUGUACAAGCUUUUUGCUCGUCUUAUU [salish99_208a_r3_047] (puzzle: Sensor for hsa-mir-208a) | – | – | – | 457 nM | 14.1 nM | 725 nM
AGUCCAGCCUGAGCUGGACAAAAGCAUGUACAUGAGGAUCACCCAUGUUCAUGUACAAGCUUUUUGCUCGUCUUCAA [salish99_208a_r3_097x] (puzzle: Sensor for hsa-mir-208a) | – | – | – | 701 nM | 13.7 nM | 525 nM
AGUCCAGCCUGAGCUGGACAAAAGCAUGUACAUGAGGAUCACCCAUGUUCAUGUACAAGCUUUUUGCUCGUCUUGCA [salish99_208a_r3_104x] (puzzle: Sensor for hsa-mir-208a) | – | – | – | 450 nM | 15 nM | 415 nM
AGUCCUGAAAAGAAAAUACAGAGAGAUGUACAUGAGGAUCACCCAUGUCAUGUACAAGUUCUAUGCUCGUCAUAUAA [Sensorship 22 - Jieux - Sensor for hsa-mir-208a] (puzzle: Sensor for hsa-mir-208a) | – | – | – | 510 nM | 106 nM | 617 nM
AGUCCUGAAUAAAUUAAACAGAGACAUGUACAUGAGGAUCACCCAUGUCAUGUACAAGUUCUAUGCUCGUCAUAUAA [Sensorship 19 - Jieux - Sensor for hsa-mir-208a] (puzzle: Sensor for hsa-mir-208a) | – | – | – | 23 nM | 14.6 nM | 24.7 nM
AUAAAACAUGAGGAUCACCCAUGUAGACACGAUGGAGGAUAUACUAGAUCGAAAGAUCUAGUAGAAGGCCGACGUA [Mat - Same State 1 - JL mod - D95] (Eterna round: R96, puzzle: Same State 1) | 21.8 nM | 15.6 nM | 19.7 nM | – | – | –
